The target of experiment [1] is DNA polymerase I (Sau) of Staphylococcus aureus (Staphylococcus aureus). Put plainly: cell-based or functional assay.
Experiment [2] addresses Sau-TBD, hybrid DNA polymerase prepared by inserting a thioredoxin binding domain (TBD) of bacteriophage T7 DNA polymerase into DNA polymerase I (Sau) of S. aureus. Put plainly: cell-based or functional assay.

This is an account of results in patent US20180298357A1.

As for “TrxA (thioredoxin of E. coli) (from UniProt P0AA25 2-109)”, in experiment [1], the Polymerization activities (units/mg protein), +TrxA (units/mg protein) is 3100. Moreover, in experiment [2], the Average amplification length of primers (nt) [1/(1 - PI)], in the presence of TrxA is 74.1 nt; the Micro continuous synthetic capacities (PI), in the presence of TrxA came to 0.987; the Polymerization activities (units/mg protein), +TrxA (units/mg protein) stood at 2860; the fold improvement of average amplification length of the primer on addition of TrxA was over 20 fold. In experiment [2], this substance had a fold improvement of polymerization activity on addition of TrxA of over 2 fold.
